# Experimental data published in the DeepSol protein solubility set.
# Test: soluble on expression in E. coli; label from the status in PepcDB or PDB records
row,Sequence,soluble on expression in E. coli
1,MTIYEQHFIFSDRIVPIRVRENKYARRLILRIDARGREICVTTPPAINLYSIQGFIAKHQSWIEARLARVQIAHANSYLKEGTKIPLLGIPHTIQRKEGRGITEIVAGDVRQEPKIVVYGQLEYLPRRIADVLKKQAALIITPLVKCYARKVERKVKSICYKDTKSRWGSCSIHGNLSFSWRLVMAPQEVIEYVVAHEVAHLIEMNHGPKFWALCEKLCPKSEAYRTWLKENGHMLQAVNFHSYRLEI,not soluble
2,GMKFNEFLNNLSNYEPGKDIEVIAKEYGVKEVIKLASNENPFGTPPKAIECLRQNANKAHLYPDDSMIELKSTLAQKYKVQNENIIIGAGSDQVIEFAIHSKLNSKNAFLQAGVTFAMYEIYAKQCGAKCYKTQSITHNLDEFKKLYETHKDEIKLIFLCLPNNPLGECLDASEATEFIKGVNEDCLVVIDAAYNEFASFKDSKKHLEPCELIKEFDNVLYLGTFSKLYGLGGLRIGYGIANANIISAFYKLRAPFNVSNLALKAAVAAMDDDEFTEKTLENNFSQMELYKEFAKKHNIKIIDSYTNFITYFFDEKNSTDLSEKLLKKGIIIRNLKSYGLNAIRITIGTSYENEKFFTEFDKILR,soluble
3,MSLSNTPIELKGSSFTLSVVHLHEAEPEVIRQALEDKIAQAPAFLKHAPVVINVSGLESPVNWPELHKIVTSTGLRIIGVSGCKDASLKVEIDRMGLPLLTEGKEKAVRPAPVEPATPSEPPQNANPITKTRLIDVPVRSGQRIYAPQCDLIVTSHVSAGAELIADGNIHVYGMMRGRALAGASGDREAQIFCTHLTAELVSIAGVYWLSDKIPAEFYGKAARLRLADNALTVQPLNEGHHHHHH,soluble
4,MEDLDAYRAACANRIRRLERYKKARSFCSLETDEPTSSSPSLSSNSDVSQENGSSTFDMIREKMFSLMENDMTLLKQLLQLGDQISEIKKERLRRTMSQNSLEYDEEDEKEDKFDSGFSASMSAVTNLYVDDERPQFFSRQNSVLRIPIPPRSSNRFGPRRVIRRPSDILPRQQTNNIRTLHVNSDDSDSSSSGSKTHSPSSSVYNASTLILPSKTTKNRSSNSSIDSGIRDEQLTPSPTFESVVI,not soluble
5,MGSDKIHHHHHHMQQEQRILFKNDTGDYAAVAAGEESVLQAGLRQSVPLNYHCASGSCGSCKARLIQGALKVHTGTDFIQVSHTADQVCEYPEVHLCQSHAVSDCVFEALYDKNVPPDLVTPKHYAASLSDVRPLGSGLYRLLVDFDDSIRFLPGQYVMLATEAGGRARAYSVANFAQDSRQLEFILSCNPNGAMSPQLCDINNIGMQLQGYGPLGKAYIRPSKDKEIVMLVGGSGVSVALSTLEWAISSHYIDDRHLTIFWGVRDTSPIDLIGVLNRYAAVHSNLRVAVCSDISPSVQDRVRFPHIEFFTGYPADHIVNDASISWEGKEVYISGPPPMVDHTVRQLMINTEIDALDIKCDSFV,not soluble
6,MASLAAVVRALLRRESQRATGYALREWTMLTARHLPYLQGQLTLGRIAAVGHLQRSTLGRSEWHTSSAPLFGEGRGRWHWGLSTSDVVDGSDHEHHSTETGGRELPSFKTGELGSDVDGDRAALEAWLAQIRDETSGWPELSLDALRDELDEELEGDDDDNDDDDDETYENEELLKALQEAVNRHRTPVVALVSGRVVHLRRTAAPKRSPRAGRVPRNEPQTTSRDTTKADANDNECT,soluble
7,MSLIKVLIVDDHALVRMGIRRLLEDMSDVDVVADAESGEQALAYVKTHSPDVVLLDMKMPGIDGWEVTRRLKKTNPNIKVIAVTAICSDPLPTRVLQLGAMGYLTKESGAEEMAAAIRKVAKGEKYLSAEIAQKMAINSLQESQDSPFDLLSEREMQVMLMITSGMNVQDIADRLFLSSKTINGYRYRMFEKLGIKNDVELTYLAMKHRIIEHPNDLSQDDEGHHHHHH,soluble
8,MSFKGFKVVMLILLSTQSYASKLASSIVCDSTIENPCIVQDSKTQFSPVIRYREVASIADVYGGNITGINKFHLSGSEQPSEKGWEAIAESISRKMGAETKKVIVLDLRQESHGYLNGRAITLVSAYNWINLGKSNSQSTLDQENWLAGLRSRKIVNGVLTVPQYVAKQYSQGKSMVVSTVKNEEYYVYKKGFDYYRIFISDHRAPLDSEVDALVALIKNNPEDTWYHVHCRGGKGRTTTVFAMFDMLKNADKVSFEEIIARQASIPPFYNLMVTNREIPELTPYYEQRLQFLIHFYEFARQSLMGYSGTWSEWKKLNI,not soluble
